In publication PMC3212568 one finds percent dimeric data, which are given here for one substance.

The target in the experiment is β2m lacking the N-terminal six residues of the mature protein (human). In words: SEC; analytical size exclusion chromatography of 1 mg/ml protein in phosphate buffered saline pH 7.3 at 25°C; monomer and dimer peaks.

Regarding “β2m lacking the N-terminal six residues of the mature protein (domain or fragment)”, the percent dimeric came out at 4%.
